Assay results from a protein production outcome set (Wang et al. 2014).

Assay: label from the status in PepcDB records

MNVLLVSVNREHAPYPVFPLGLACLAGPLRAAGHRLSVLDLCFAADPEEATRQALAEFSPDVVVLSLRNIDNVTYPGSRSYLSGVRDVVAICRERAAVVVGGSGFSLMPREVLAYLGADYGVVGEGEDVLPRLLARIAAGEGGDGLPGVVARENAGFLPPHPVQAIGTPLRGLFQVERYHREGGMANIQTKRGCPFSCIYCTYPLLEGERMRLRPVADIIAEIGDLVDVHGVSYLYFVDDIFNYPLEFALELCRAMSAARLPVAWSAFINPDFLPPQLLDAMLAAGCDALEFGTDSGSPVMLRNLRKSFGIEKVREASRLCREAGVDFAHYILFGGPGETPATIAESFALMDEVAPTAVIAMTGIRIFPGTAIYRQALADGLITPETDLLRPAFYIAPTIADTLCELVREEALKRTNWVVPGLEITANDAMLEALRHFAGPGPLWKMLKLLGRRRGSVPSPWSHSPS
protein production: failed

MTLSKRLALLGAQSAITLAKPRGLGSSLGLLDRRPFPYRQFSELTKANGRRAFLVDTLALVRSLEAQGVPSKQAEAITSAITEVLNDSLENVSESFVSKAEMQKIEMIQDSNLSKFKSEVKSSQVTSTLVV
protein production: failed

MSDHPGPGAVTPELFGVGGDWLAVTAGESGASVFRAADATRYAKCVPAADAAGLEAERDRIAWLSGQGVPGPRVLDWYAGDAGACLVTRAVPGVPADRVGADDLRTAWGAVADAVRRLHEVPVASCPFRRGLDSVVDAARDVVARGAVHPEFLPVEQRLVPPAELLARLTGELARRRDQEAADTVVCHGDLCLPNIVLHPETLEVSGFIDLGRLGAADRHADLALLLANARETWVDEERARFADAAFAERYGIAPDPERLRFYLHLDPLTWG
protein production: failed

MITVSIVSHGQSTLVEQLLADLVRLDMSMVTEVLVTLNIPEDISSKPGDYPYPVRILRNTAARGFGANHNAAFRQAEGEWFCVMNPDIRLINNPFPILIEEGAYDSAGVIAPMVVTPSGMIEDSVRCFPVLTSLAAKLFGHGDGRYLFAAGDEAFAADWVAGMFMLFRTEDFRAVGGFDEGFFLYYEDVDICARLWKSGRSVLACPKASVIHDARRSSRRNLRYMKWHALSLIRYFWKHWGRLPQTPEQLEHHHHHH
protein production: not failed

MTLDANSAPVRDMASAHFSPGEDCRRKIRDLCRQARISVDICVFTISDDQLSDEIRACHQRGVAVRVISDSEKQFDVGSDIAALREAGVPVRIDDTPFHMHHKFAVFDGRTLLNGSFNWTRSATTGNEENLLVIDHPQLVASYLKEFNELWSRYAPRLEHHHHHH
protein production: failed

MPPMLSGLLARLVKLLLGRHGSALHWRAAGAATVLLVIVLLAGSYLAVLAERGAPGAQLITYPRALWWSVETATTVGYGDLYPVTLWGRLVAVVVMVAGITSFGLVTAALATWFVGREQERRGHFVRHSEKAAEEAYTRTTRALHERFDRLERMLDDNRR
protein production: failed

MKTGKELKPGTVLRIDNDPWLVQKAEFTKSGRNSAIMKTKLKNLLTGYKTETVYGADDKLDDVILDRKEATLSFINGDEYTFMDTTDYTMYELNAEDIEAVLPYIEEGMEDVCEAVFFEGRLVSVELPTTISRKVVYTENAARGDTSGKVMKPAKLANGTEISVADFIQIDEWIDIDTRDNSFKGRSKKLEHHHHHH
protein production: not failed

MENSDDIRLIVKIAQLYYEQDMTQAQIARELGIYRTTISRLLKRGRDQGMVTIAINYDYNENLWLEQQLKQKFGLKDVVVVSGNDEDEETQLAMMGLHGAQLLDRLLEPGDIVGFSWGRAVSALVENLPQAGQSRQLICVPIIGGPSGKLESRYHVNTLTYSAAAKLKGESHLADFPALLDNPLIRNGIMQSQHFKTISAYWDNLDIALVGIGSPAIRDGANWHAFYGGEESDDLNARQVAGDICSRFFDIHGAMVETNMSEKTLSIEMNKLKQARYSIGIAMSEEKYSGIIGALRGKYINCLVTNSSTAELLLK
protein production: not failed

MRDRRAPSPCGWRSGRNDLRPARLDLAISAAMRTNSAPQPEGDADQPPSPSTPPAGPPPRRRFGFARRLLAPVLSPVAHYARRYLQASVEHELRQTQGQLHALSAELNAAQARIDHNRELMHLMLQQQQASAVAMQSVLAQLARIEGHSARAEDHGIRIEGLSRKLDGDIAGLPGVFGPRFDELEIKQRPLIAYDDESMAIRMRDGYVLAPRNLPTFVTMLANATSRGLEPGTGDVLRRLVQPGMVVADVGANIGLLTLVMAWATGPGGRVIAFEPEAIPRSNLEKMKHLNGLSWVEVRDQAVGERAGRLTFHVSDIIGHSSLYALPDAEEARTVEVEVVRLDDVAPAKRLDVVKIDVEGAELDVLAGMKGVIAKNPDLAIIAEFGPEHLARVGQTPVQWFKAFGDAGFKAYMINETSGDCEPTSAKAATTVVSANIAFVRAGGDAEMRLLGR
protein production: failed

MSQLTFWFGCALVALIAEFVSGTFYLLMVALALACGGFAAWLGAPEPWQWLIASVSGAVGLLAIHRRRRSLMPPPPPQDDPDWGQQVEIRALTTPGHARIHYRGAEWDALLMDSRLDAGSTGYISGREGNLFKISSQQPQ
protein production: failed

VAYLGPAGTFTEEALYKFADAGVFGDGEIEQLPAKSPQEAVDAVRHGTAQFAVVAIENFVDGPVTPTFDALDQGSNVQIIAEEELDIAFSIMVRPGTSLADVKTLATHPVGYQQVKNWMATTIPDAMYLSASSNGAGAQMVAEGTADAAAAPSRAAELFGLERLVDDVADVRGARTRFVAVQAQAA
protein production: failed

MEEQVLGQSHDCETAADKSDQKLQDVTLAKTTHWGKIKAMLEEKIDELSQGLHRVASDNAALTRSLQERSEMIVKISEERSKAEADVEKLKD
protein production: failed

DIVARLQTQASATVAIPKEHHRFVIGKNGEKLQDLELKTATKIQIPRPDDPSNQIKITGTKEGIEKARHEVLLISAEQDKR
protein production: not failed

MGRKIVFFDIDGTLLDEQKQLPLSTIEAVRRLKQSGVYVAIATGRAPFMFEHVRKQLGIDSFVSFNGQYVVFEGNVLYKQPLRREKVRALTEEAHKNGHPLVFMDAEKMRASIGDHPHIHVSMASLKFAHPPVDPLYYENKDIYQALLFCRAEEEEPYVRNYPEFRFVRWHDVSTDVLPAGGSKAEGIRMMIEKLGIDKKDVYAFGDGLNDIEMLSFVGTGVAMGNAHEEVKRVADFVTKPVDKEGIWYGLKQLQLIR
protein production: not failed

RDRPAGLLRINATLGFGRTHLAPAIARFRRIHPAVEVQLLLTDAPLNLVEEGIDLGIRFGAPPFGRMVMRLLQRNRRFLCAAPSYLEARGVPQSLTDLQQHSCIVLRQDHDAYDVW
protein production: failed

MASEHFDMWESRFSADGYLFGTAPNAFLASCHDLLPKQGRALAIADGEGRNGVFLAECGLSVLSVDFSPTAQAKAHKLAAERGVTIETRTADLLSWQWPGGFDVIAGIFFQFVEPEQRPQIFQQIRAALKPGALLLIEGYRPKQLAYKTGGPSRAENLYTRELLEQAFGDFDNLSIRERDSEIVEGAGHAGLSALIDLIGWKPKLEHHHHHH
protein production: not failed

MSRVQMDTEEVREFVGHLERFKELLREEVNSLSNHFHNLESWRDARRDKFSEVLDNLKSTFNEFDEAAQEQIAWLKERIRVLEEDY
protein production: not failed

MENYHRLYELSPLITGWTICVMILRIYKKMLNDHSFELHLILQDEAGKRIEVTIGTRFSAFYYDRLIENQWKMISTFLGTVLLNNFTPFDYILEHSVRKDTLVDLLGALIDFDWLTNSAPNGSDMDGFKLQFRFIDSKFTIYSQDILQCEAHGEYAVDLEKKFRSVRNNKVVIALAFWKIVTYFDGGHRMKIASHAPISTVYPDPDIEPVKEIKMVCIY
protein production: failed

MSLSVMFDPQSYPYPSRRNVVYAKNGMVATSQPLAAQAGLDILKAGGNAIDAAIATATALTVLEPTSNGIGSDAFALVWTKGKLHGLNGSGRAPMSLTMEAVKAKGYEQELPPYGVIPVTVPGAPGAWAELAKMYGNLPLAASLAPAIRYAEEGYPVTPTLAKYWKAAYDRFKTEWTDDVYQPWFDTFAPKGRAPRVGEVWRSQGHADTLRSIAESNGESFYRGELADQIHAFFDKHGGYLTKEDLACYRPEWVEPISIDYRGYRVWEIPPNGQGLVALEALNIVKGFEFYHKDTVDTYHKQIEAMKLAFVDGMKYVTEPSDMSVSVEQLLSDEYATERRKEIGEQALTPEPGTPPRGGTVYLATADGDGNMVSFIQSNYMGFGSGVVVPGTGIAMQNRGHNFSLDPNHDNALKPGKRTYHTIIPGFLTKNDQPIGPFGVMGGFMQPQGHMQVMMNTIDFGLNPQAALDAPRWQWTNGKQVQVEPTFPVDIAQALVRRGHKIQVVLDEGAFGRGQIIWRDPTTGVLAGGTEPRTDGQVAAWEGHHHHHH
protein production: not failed

MKKIAIFGSAFNPPSLGHKSVIESLSHFDLVLLEPSIAHAWGKNMLDYPIRCKLVDAFIKDMGLSNVQRSDLEQALYQPGQSVTTYALLEKIQEIYPTADITFVIGPDNFFKFAKFYKAEEITERWTVMACPEKVKIRSTDIRNALIEGKDISTYTTPTVSELLLNEGLYRETLSGK
protein production: not failed

MTGKAKPKKHTAKEIQAKIDAALTNRGGGKAGIADRTGKEKGGHAKYECPHCKITAPGLKTMQIHHESKHPNIIYEESKLVNLHAVLAPVAESKPKPGIRGSLKK
protein production: failed

MNSNRSLLVMGLLLVSFLIFTQWQQDFNPEIQAQKQAQQQSRDVPHATNTANAITEHMTKGKTITVESDVLRLVIDTLGGDVIESDLLAHKASLDSTDPLKLLTTEGLIYTAQSGLVGKNGIDTHIGRAPYQVTQDHFTLAKGQNEIVVPMTFEQDGVMYTKTFTLKRGSYDVAVSFDIQNNSANTIEVQPYGQIKHSLLDSSGNLAMPTYTGGAYSSSETNYKKYSFDEMTKANLNIDTKGGWVALLQHYFVSAWVPNQDASNTLYSRTHNGVATIGYRGPITTVKPNTKTTITSQLWTGPKDQKEMAQAATHLELTVDYGWAWFIAKPLFWLLIFIHSIIGNWGLAIMGVTLVVKSLLYPLTKAQYTSMAKMRMLQPKLQELRERYGDDRQQMSQEMMKLYKQEKVNPMGGCLPLILQMPIFIALYWTFMEAVELRHAPFFGWIQDLSAQDPYYIFPVLMGLSMFLLQKMSPTAVADPTQLKVMTFMPVIFTVFFLWFPSGLVLYWLTSNCITIVQQWLIYRNLEKKGLHTRKK
protein production: failed

ADNNKWKPLFGKNLENANYNPEVWSETDGVLGAVKDESIWTKDEYENFELDLDFKTDVGTNSGVVVYCTDTKDWIPNSVEIQIADDHCEKWGNGKPYEKCGAIYGHLGAVQDKVVKKPGEWNHMRIKCAGQHIMVILNGKKVTEMDMSKWTSGTKNPDGSDIPSWLPKPFAELPTKGFIGLQGKHGDSLIWFRNIKIRSL
protein production: not failed

MTNTIKKISTAQTYLNNNEIEKIIEVSKSLDLMASFYEADVFIDVLSKFDDEAIVVAHGRPKEKSMYCENVIGKKALIENEPGVIKCLKTGERVRDIKALTQEYKLVKQNIQPITLDDKVLAVLIVEKDISSEVKNEFNASEDEENKNLHQFIKLIGNNDFLVDNLNSAILIFDKNGKLKIKNRIATEIYKNLGFGYDIQDMHYNDLDIETNTFENILMDENYDETNEVSIGNMFFKIKTIYIKDDEFKVCKIVQDISDLKRKEEELVLKTVAIREAHHRVKNNLHTVISIIKKQSRLSQNDEVKQCLDNIINRVFAILSTHYLLSKEVDNNISIREGINLLVSNIQGGYLFSKDIDIRITGEDFKISGEKATAILLVINEILQNCYDHAFSDREHGTIQILINKDNDYRNIAIIDDGIGFDSNNINKNSLGTYIIDSYITQMLKGNIERKSSENGTEVLITIPTQINI
protein production: failed

AKSEMAFAGKGEISPRAITMWDFSWLERRWPGAGYEDWDQVLDELSERGYNAIRIDAYPHLIAENPMKKWLLKEVWNQQDWGSPDMNEVQVQPNLNLFLSKCKERDIKVGLSSWYRLDVDEVCLKLDTPEKLADCWLTILRSIEEDGLLDTILYVDLCNEWPGDSWAPFFAKTYPNVGWGNWYKEESLRWMKTSLEKMRQVYPDMPFLYSFDHGDVKKYEEVDCSFLDLYEHHIWMAQQNGGEFYKLVGYGYNRFLPDDYKNVVKNAERVYRERPGYWQKLLTDKIELMASVARKNRRPLVTTECWGLVDYKDWPLLKWDWVKDLCELGTITAARTGMWVGVATSNFCGPQFAGMWRDVEWHKRLTSIIRSSPLDESLTKNNEVAAKLLKRL
protein production: not failed
